{
  "source": "patent US8415152B2",
  "about": "“Therapeutical composition containing dentritic cells and use thereof” (Helmholtz-Zentrum für Infektionsforschung GmbH, priority 2003, dated 2013)",
  "type_in_all_cases": "cell-based, human",
  "key": {"[1]": {"tested_on": "monocyte derived DC", "test": "Cytokines in DC culture supernatant (ELISA)", "conditions": "day 7 of culture", "procedure": "(§1) Monocyte derived DC were generated as previously described (Weigt et al. Immunobiol. 207, 223-233 (2003). Briefly, blood was centrifuged to remove platelets, diluted and layered over Ficoll-Paque (Amersham Pharmacia, Uppsala, Sweden). After density gradient centrifugation, PBMC were collected, and monocytes were enriched using the MACS system and anti-CD14 beads (Miltenyi Biotec, Bergisch Gladbach, Germany). The CD14 positive fraction (monocytes) was cultured in the serum-free medium X-VIVO 15 supplemented with 100 U/ml penicillin and […] streptomycin (all BioWhittaker, Verviers, Belgium). The CD14 negative fraction containing the lymphocytes was cryopreserved in 90% FCS (GIBCO, Eggenstein-Leopoldhafen, Germany) and 10% DMSO (SIGMA, Taufkirchen, Germany). On day 1 and day 5 after isolation, 800 U/m of recombinant GM-CSF and 500 U/ml of recombinant IL-4 (Strathmann Biotec, Hamburg, Germany) were added to the monocyte culture to induce DC.\n(§2) On day 5 of the culture, DC were pulsed with affinity purified house dust mite allergen adjusted to a concentration of 100 ng/ml of DerP1 or with PBS as control. […] The respective optimal concentrations were experimentally determined using the highest expression of stimulatory cell surface molecules as read-out system. The substances were incubated on the cells for 48 hours.\n(§3) Cytokine concentrations were determined in DC culture supernatant collected on day 7 (TNF-α, IL-10, IL-12) and in the supernatant of the coculture of DC and autologous lymphocytes collected on day 10 (IFN-γ, IL-4). Duo-Set ELISA kits for the detection of IL-12p70, IL-10, TNF, IFN-γ, IL-4 and IL-5 were purchased (R&D Systems, Wiesbaden, Germany) and performed according to the manufacturers instructions."}, "[2]": {"tested_on": "autologous lymphocytes", "test": "Cytokines in coculture of pretreated DC with autologous lymphocytes (ELISA)", "conditions": "for IFN-g concentration in coculture supernatant / IL-4 concentration in coculture supernatant: DerP1 pulsed DC, day 3 of coculture", "procedure": "as §2, §3\n(§4) A portion of DC was used for coculture experiments with autologous lymphocytes from day 7 to day 13. To remove free stimulants, DC were harvested and washed twice. The cells were titrated in fresh medium in fresh round-bottom microtiterplates. 1×10^5 vital cryopreserved autologous lymphocytes were added at ratios of DC to lymphocytes from 1:3 to 1:2187 in a final volume of 200 μl in serum-free XVIVO-15. No further stimulants were given."}, "[3]": {"tested_on": "monocyte derived DC", "test": "Flow cytometric analysis of DC surface molecules", "procedure": "as §1, §2\nFor immunophenotyping, an aliquot of DC was harvested after 7 days of culture and washed in PBS supplemented with 0.5% FCS and 10 mM NaN3 (SIGMA, Taufkirchen, Germany). After 30-minute-incubation at 4° C. with one of the following combination of labeled murine mAbs (isotype control FITC/isotype control PE, anti-CD83 FITC, anti-CD86 FITC/anti-CD40 PE, anti-CD 80 FITC/anti-HLA-DR PE, anti-CD1a FITC/anti-CD14 PE (all BD Biosciences, Heidelberg, Germany)) cells were washed and analysed on a EPICS XL-MCL (Beckmann Coulter, Krefeld, Germany) flow cytometer. Data were processed with the Expo 32 cytometer software (Beckmann Coulter). The expression of the cell surface molecules was shown in 1 parameter Histograms (FIG. 2) or evaluated using the median of fluorescence intensity (MFI) after subtraction of the values of the isotype control (Tab. 1)."}, "[4]": {"tested_on": "autologous lymphocytes", "test": "Proliferation assay (3H-thymidine) in coculture of DC and autologous lymphocytes", "conditions": "DC of allergics, allergen pulsed, 3H-thymidine day 12 for 18 hours", "procedure": "as §4\nThe coculture was pulsed with 5 μCi/ml ^3H-thymidine (Amersham Buchler, Braunschweig, Germany) on day 12. After 18 hours, the cells were harvested on filtermats (Canberra-Packard, Dreieich, Germany). After drying, 20 μl of liquid scintillator (Can berra-Packard) were added and the plates were sealed. Counts per minute were determined on a Topcount Microplate Scintillation Counter (Can berra-Packard)."}, "[5]": {"conditions": "allergic donors, DC:lymphocytes 1:3"}, "[6]": {"conditions": "allergic donors, pretreated DC:lymphocytes 1:3, mean±SEM of 6 experiments"}, "[7]": {"conditions": "DC of allergics, 48 h treatment, DerP1 100 ng/ml, MALP-2 100 pg/ml, IFN-g 5000 U/ml, mean±SEM of 6 experiments"}},
  "data": [
    {"molecule": "DerP1: affinity purified major allergen of the house-dust mite Dermatophagoides pteronyssinus (protein, UniProt P08176 99-320, looked up) Peptidase 1: TNACSINGNAPAEIDLRQMRTVTPIRMQGGCGSCWAFSGVAATESAYLAYRNQSLDLAEQELVDCASQHGCHGDTIPRGIEYIQHNGVVQESYYRYVAREQSCRRPNAQRFGISNYCQIYPPNVNKIREALAQTHSAIAVIIGIKDLDAFRHYDGRTIIQRDNGYQPNYHAVNIVGYSNAQGVDYWIVRNSWDTNWGDNGYGYFAANIDLMMIEEYPYVVIL", "values": [
      {"measurement": "TNF production in DC culture supernatant", "setting": "[1]", "result": "low levels"},
      {"measurement": "IL-10 production in DC culture supernatant", "setting": "[1]; compared to untreated DC", "result": "did not influence"},
      {"measurement": "IL-12p70 production in DC culture supernatant", "setting": "[1]; compared to untreated DC", "result": "did not influence"},
      {"measurement": "IFN-g in coculture supernatant", "setting": "[2]; [5]", "result": "reduction of IFN-g"},
      {"measurement": "IL-4 in coculture supernatant", "setting": "[2]; [5]", "result": "increase in IL-4"},
      {"measurement": "IFN-γ production in coculture", "setting": "[2]; [6]", "result": "3.6 +/− 2.1"},
      {"measurement": "IL-4 production in coculture", "setting": "[2]; [6]", "result": "13.6 +/− 7.3"},
      {"measurement": "IFN-g concentration in coculture supernatant", "setting": "[2]; allergics, ±SEM", "result": 3.6, "unit": "pg/mL"},
      {"measurement": "IL-4 concentration in coculture supernatant", "setting": "[2]; allergics, ±SEM", "result": 13.6, "unit": "pg/m"},
      {"measurement": "IL-4 concentration in coculture supernatant", "setting": "[2]; healthy donors", "result": "below the detection limit"},
      {"measurement": "IFN-g concentration in coculture supernatant", "setting": "[2]; non-allergics (healthy donors), ±SEM", "result": 8.7, "unit": "pg/m"},
      {"measurement": "CD1a median fluorescence intensity", "setting": "[3]; [7]", "result": "265.2 +/− 106.8"},
      {"measurement": "CD 14 median fluorescence intensity", "setting": "[3]; [7]", "result": "17.6 +/− 9.8"},
      {"measurement": "CD 40 median fluorescence intensity", "setting": "[3]; [7]", "result": "733 +/− 160.5"},
      {"measurement": "CD 80 median fluorescence intensity", "setting": "[3]; [7]", "result": "47.2 +/− 18.9"},
      {"measurement": "CD 83 median fluorescence intensity", "setting": "[3]; [7]", "result": "47.3 +/− 9^"},
      {"measurement": "CD 86 median fluorescence intensity", "setting": "[3]; [7]", "result": "159.8 +/− 29.3"},
      {"measurement": "HLA-DR median fluorescence intensity", "setting": "[3]; [7]", "result": "426.9 +/− 131.9"},
      {"measurement": "Surface expression of CD80, CD86, CD40, HLA-DR, CD83 on DC", "setting": "[3]; immature DC of allergics, 48 h incubation", "result": "no effect on the expression of the surface molecules"},
      {"measurement": "Lymphocyte proliferation", "setting": "[4]", "result": "only a very weak effect on lymphocyte proliferation"}
    ]}
  ]
}
